Test system: peptide library, one residue held at a place counted from the Y acceptor
Test: relative phosphorylation of the sub-library (ratio to the mean residue at this position); higher = residue favoured
Procedure, shortened: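 Purified recombinant kinases were given 50 μM ATP with γ-32P-ATP and biotinylated Tyr-centred peptide library mixtures for 90 min in 384-well plates. Peptides bound to streptavidin membranes were rinsed and quantified by phosphorimaging, and intensities were normalized per position by the sum of the 18 randomized residues (16 with the Ser/Thr-free library) and multiplied by that number. The reported values are phosphorylation relative to the mean randomized residue.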

Sequence of BTK, construct: Full length, human (Q06187 whole entry, looked up): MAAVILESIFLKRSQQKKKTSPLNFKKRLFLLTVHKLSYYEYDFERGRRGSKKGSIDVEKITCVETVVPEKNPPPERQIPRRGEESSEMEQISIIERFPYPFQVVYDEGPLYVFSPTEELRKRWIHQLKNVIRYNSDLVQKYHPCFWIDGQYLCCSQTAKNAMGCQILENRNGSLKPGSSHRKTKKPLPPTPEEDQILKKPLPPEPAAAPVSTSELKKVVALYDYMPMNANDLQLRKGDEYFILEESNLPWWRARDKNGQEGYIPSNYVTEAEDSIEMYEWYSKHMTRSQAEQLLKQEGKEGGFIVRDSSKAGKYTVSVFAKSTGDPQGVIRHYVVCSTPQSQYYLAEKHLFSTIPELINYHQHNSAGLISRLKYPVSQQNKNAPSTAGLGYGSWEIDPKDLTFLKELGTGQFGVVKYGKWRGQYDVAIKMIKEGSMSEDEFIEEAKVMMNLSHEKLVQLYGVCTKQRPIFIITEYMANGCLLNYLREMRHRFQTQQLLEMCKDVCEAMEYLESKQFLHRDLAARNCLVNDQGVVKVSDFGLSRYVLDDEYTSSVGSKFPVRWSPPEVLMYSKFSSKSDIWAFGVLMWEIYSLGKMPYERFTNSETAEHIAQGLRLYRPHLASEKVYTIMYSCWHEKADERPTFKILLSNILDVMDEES

BTK, construct: Full length, human (from UniProt Q06187)
relative phosphorylation
Conditions	at +1	at +2	at +3	at +4	at +5	at -1	at -2	at -3	at -4	at -5
A fixed	1.39	0.87	1.06	0.754	0.911	0.443	0.964	0.709	1.04	0.982
D fixed	0.67	0.561	0.345	0.63	0.755	0.375	1.14	1.22	1.19	1.1
E fixed	1.36	1.13	0.302	0.661	0.676	0.416	1.24	1.71	1.41	0.914
F fixed	0.954	1.32	1.41	1.1	1.46	1.97	0.934	1.43	1.13	1.21
G fixed	1.1	0.546	0.759	0.928	0.941	0.308	1.04	0.779	1.03	1.01
H fixed	0.657	0.679	0.995	1.02	0.909	1.3	0.871	1	0.984	1.02
I fixed	1.17	1.19	1.42	1.01	0.796	2.79	0.874	0.799	1.01	1.04
K fixed	0.398	0.873	1.01	1.17	1.05	0.294	0.708	0.644	0.736	0.884
L fixed	1.03	0.884	0.801	0.915	1.05	2.9	1.3	0.812	1.1	0.941
M fixed	1.43	1.05	0.925	1.38	1.24	1.55	0.796	1.11	1.03	1.18
N fixed	0.466	0.827	0.886	0.779	0.949	0.589	1.21	1.1	0.823	1.17
P fixed	0.181	0.636	0.553	0.772	1.23	0.526	1.19	0.967	1.03	0.99
Q fixed	0.963	0.923	0.722	1.07	0.816	0.486	0.966	0.892	1.01	0.937
R fixed	0.524	1.26	1.62	1.53	1.25	0.279	0.771	0.729	0.964	0.985
S fixed	0.888	1.05	1.14	0.749	0.755	0.375	1.15	0.814	0.725	0.766
T fixed	0.812	1.27	0.946	0.917	0.816	0.788	0.868	0.745	0.658	0.769
V fixed	1.58	1.27	1.3	0.944	0.892	1.55	1.07	0.838	0.926	0.965
W fixed	2.42	1.67	1.8	1.68	1.5	1.06	0.902	1.7	1.21	1.14
pThr fixed	1.09	1.45	0.357	0.523	0.47	0.911	1.01	0.846	0.896	0.954
pTyr fixed	1.22	1.58	0.433	0.603	0.684	1.26	1.14	1.15	1.26	1.09

— the supplement of paper PMC11136658
